Measured values published in patent US20120165244A1, “METHODS FOR BINDING LEWIS Y ANTIGEN” (priority 2008, published 2012).

Legend:
[1] = Half-life of rTMD1 in the circulation (sandwich ELISA); assay type: in vivo, Male FVB mice; conditions: mice
Procedure: (§1) Male FVB mice (8-10 weeks old) were used to model sepsis in vivo. The Institutional Animal Care and Use Committee of the National Cheng Kung University approved procedures. In the chronic endotoxemia model, various concentrations of rTMD1 or rTMD proteins in equi-molar amounts were administrated by tail intravenous (i.v.) injection and LPS (20 mg/kg) or K. pneumoniae (5×10^2 CFU/mouse, BCRC) was administrated by intraperitoneal (i.p.) injection. After 6 or 12 hours, mice were sacrificed by pentobarbital anesthesia (50 mg/kg; i.p.). […] The half-life of rTMD1 in the circulation was determined by i.v. injection of rTMD1 (10 mg/kg, equals 436.64 nmole/kg) and serum samples were collected at various time intervals. The levels of rTMD1 in the collected sera were determined by a sandwich ELISA which employed anti-c-Myc monoclonal antibody and TM-H300 as capture and detection antibodies (both from Santa Cruz Biotechnology), respectively. […] Mortality was monitored every 6-12 hours until all mice in either experimental group died. […] Serum samples were collected at various time intervals and the amount of LPS was determined by Limulus amebocyte lysate test (Associates of Cape Cod, E. Falmouth, Mass.). […] Outgrowth of K. pneumoniae was quantified by plating serial dilutions of blood samples on blood agar plates and enumerating colonies after overnight incubation at 37° C.

[2] = system: K. pneumoniae; assay: K. pneumoniae (5×10^2 CFU/mouse) systemic sepsis model in mice; assay type: in vivo, Male FVB mice
Procedure: TNF-α in conditioned medium or mouse serum was measured by an enzyme-linked immunosorbent assay (ELISA) (R&D Systems, Minneapolis, Minn.). Accumulation of nitrite in the medium or mouse serum was determined by a colorimetric assay using Griess reagent (Sigma-Aldrich). Blood urea nitrogen (BUN) and creatinine were measured with a Roche D&P modular (Roche Diagnostic Systems, Branchburg, N.J.). Assays were performed according to the manufacturer's protocol.
Male FVB mice (8-10 weeks old) were used to model sepsis in vivo. The Institutional Animal Care and Use Committee of the National Cheng Kung University approved procedures. In the chronic endotoxemia model, various concentrations of rTMD1 or rTMD proteins in equi-molar amounts were administrated by tail intravenous (i.v.) injection and LPS (20 mg/kg) or K. pneumoniae (5×10^2 CFU/mouse, BCRC) was administrated by intraperitoneal (i.p.) injection. After 6 or 12 hours, mice were sacrificed by pentobarbital anesthesia (50 mg/kg; i.p.). Sera were collected and assayed for TNF-α, NO, BUN, and creatinine, and lung and kidney tissues were removed, fixed with formalin, and embedded in paraffin for histochemical examination. In the lethal sepsis model, rTMD1 (2 mg/kg, equals 87.3 nmole/kg) was i.v.-administrated at 0, 6, 12, and 24 hours after i.p. administration of LPS (40 mg/kg). The half-life of rTMD1 in the circulation was determined by i.v. injection of rTMD1 (10 mg/kg, equals 436.64 nmole/kg) and serum samples were collected at various time intervals. The levels of rTMD1 in the collected sera were determined by a sandwich ELISA which employed anti-c-Myc monoclonal antibody and TM-H300 as capture and detection antibodies (both from Santa Cruz Biotechnology), respectively. […] Mortality was monitored every 6-12 hours until all mice in either experimental group died. Experimental procedure of determining LPS half-life is as following. LPS (20 mg/kg) was i.p.-administrated to male FVB mice without or with rTMD1 (10 mg/kg; i.v.). Serum samples were collected at various time intervals and the amount of LPS was determined by Limulus amebocyte lysate test (Associates of Cape Cod, E. Falmouth, Mass.). A further experiment was performed to determine whether rTMD1 affects bacterial clearance. K. pneumoniae (5×10^2 CFU/mouse) was i.p.-administrated to male FVB mice without or with rTMD1 (10 mg/kg; i.v.), and blood samples were collected at various time intervals. Outgrowth of K. pneumoniae was quantified by plating serial dilutions of blood samples on blood agar plates and enumerating colonies after overnight incubation at 37° C.

[3] = system: K. pneumoniae; assay: K. pneumoniae clearance in circulation (viable CFU counts in blood); assay type: in vivo, male FVB mice
Procedure: as §1

[4] = target: T1, binding of LPS binding protein to LPS (Homo sapiens, UniProt P18428); assay: Binding of LPS binding protein to LPS; conditions: data not shown
T1 sequence (P18428 26-481): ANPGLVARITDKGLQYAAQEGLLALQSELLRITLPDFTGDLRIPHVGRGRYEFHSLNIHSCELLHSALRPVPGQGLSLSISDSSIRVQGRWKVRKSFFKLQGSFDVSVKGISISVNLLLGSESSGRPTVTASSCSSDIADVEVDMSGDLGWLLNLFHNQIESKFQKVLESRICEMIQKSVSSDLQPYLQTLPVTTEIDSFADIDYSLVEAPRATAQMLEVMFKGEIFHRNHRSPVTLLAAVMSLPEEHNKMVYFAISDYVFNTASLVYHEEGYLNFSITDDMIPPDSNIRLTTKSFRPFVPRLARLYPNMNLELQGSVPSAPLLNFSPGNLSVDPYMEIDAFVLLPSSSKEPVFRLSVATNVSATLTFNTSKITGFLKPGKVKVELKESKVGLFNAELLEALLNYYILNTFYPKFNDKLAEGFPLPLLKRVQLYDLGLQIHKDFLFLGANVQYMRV

[5] = rTMD1 5-25 mg/kg i.v., 12 hours, 5×10^2 CFU

B1: rTMD1: recombinant human thrombomodulin N-terminal lectin-like domain (residues Ala1-Ala155) with 6×His tag and c-Myc epitope, Pichia pastoris expressed (protein)
chain: EFAPAEPQPGGSQCVEHDCFALYPGPATFLNASQICDGLRGHLMTVRSSVAADVISLLLNGDGGVGRRRLWIGLQLPPGCGDPKRLGPLRGFQWVTGDNNTSYSRWARLDLNGAPLCGPLCVAVSAAEATVPSEPIWEEQQCEVKADGFLCEFHFPAYLEDDDDKIEQKLISEEDLNSAVDHHHHHH
modifications: left off: small tags and cut ends
- time detectable after each i.v. injection ([1]; i.v.): ≤ 12 h
- half-life in circulation ([1]; i.v. 10 mg/kg): 3 to 4 h
- survival, post-treatment ([2]; all rTMD1-treated groups vs infected mice without rTMD1): improved
- K. pneumoniae-induced TNF-α release, post-treatment ([2]; rTMD1 10 mg/kg i.v. immediately, 30 or 60 minutes after K. pneumoniae): effectively suppress
- NO production in K. pneumoniae-infected mice [2, 5]: effectively reduced
- TNF-α production in K. pneumoniae-infected mice [2, 5]: effectively reduced
- K. pneumoniae clearance in circulation, post-treatment ([3]; 12, 24, 36 hours after infection, rTMD1 given up to 30 or 60 minutes after infection): enhance
- K. pneumoniae clearance in circulation ([3]; 12, 24, and 36 hours after injection, rTMD1 10 mg/kg i.v., 5×10^2 CFU): significantly enhanced
- binding of LPS binding protein to LPS [4]: not inhibited
